In publication PMC9796789 (The Febs Journal, 2022):

Assays:
[1] = target: CrtE from Synechococcus elongatus sp. PCC 7942 with a C-terminal His-tag (SeCrtE-His) (Synechococcus elongatus sp. PCC 7942); assay: crystal structure
[2] = target: T1, SyCrtE (Synechocystis sp. PCC 6803, UniProt P72683); assay: LC-MS of prenyl pyrophosphate products; assay type: biochemical; settings: 50 µM DMAPP, 100 µM IPP, 10 mM MgCl2, 25 mM MOPSO pH 7.2, 30 °C, 2 h
T1 sequence (P72683 1-302): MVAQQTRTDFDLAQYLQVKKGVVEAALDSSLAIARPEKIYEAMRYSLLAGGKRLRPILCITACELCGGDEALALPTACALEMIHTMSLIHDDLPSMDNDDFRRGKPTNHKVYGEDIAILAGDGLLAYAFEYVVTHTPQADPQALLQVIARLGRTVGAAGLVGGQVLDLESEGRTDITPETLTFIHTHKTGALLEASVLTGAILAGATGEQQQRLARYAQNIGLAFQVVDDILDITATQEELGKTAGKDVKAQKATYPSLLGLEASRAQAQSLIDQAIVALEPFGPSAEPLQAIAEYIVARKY

[3] = target: T2, SeCrtE (Synechococcus elongatus, UniProt Q31Q61); assay: LC-MS of prenyl pyrophosphate products; assay type: biochemical; settings: 50 µM DMAPP, 100 µM IPP, 10 mM MgCl2, 25 mM MOPSO pH 7.2, 30 °C, 2 h
T2 sequence (Q31Q61 1-301): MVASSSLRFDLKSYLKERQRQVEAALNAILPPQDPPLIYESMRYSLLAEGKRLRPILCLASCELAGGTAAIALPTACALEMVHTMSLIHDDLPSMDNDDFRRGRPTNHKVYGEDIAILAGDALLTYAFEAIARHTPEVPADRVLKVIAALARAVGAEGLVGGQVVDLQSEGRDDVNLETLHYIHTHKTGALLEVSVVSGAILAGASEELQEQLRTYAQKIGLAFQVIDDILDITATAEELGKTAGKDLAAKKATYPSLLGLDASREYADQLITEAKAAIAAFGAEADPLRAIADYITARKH

[4] = target: the molecule itself; assay: crystal structure

CrtE from Synechococcus elongatus sp. PCC 7942 with a C-terminal His-tag (SeCrtE-His) (enzyme)
stoichiometry N [1]: 2

CC(C)=CCC/C(C)=C/CC/C(C)=C/CC/C(C)=C/COP(=O)(O)OP(=O)(O)O [GGPP]
LC-MS of prenyl pyrophosphate products [2]: Under identical experimental conditions, SyCrtE produced GGPP, GPP and FPP
LC-MS of prenyl pyrophosphate products [3]: For SeCrtE, only GGPP formation was detected

B1: CrtE from Synechocystis sp. PCC 6803 with a C-terminal His-tag (SyCrtE-His) (enzyme)
chain: MVAQQTRTDFDLAQYLQVKKGVVEAALDSSLAIARPEKIYEAMRYSLLAGGKRLRPILCITACELCGGDEALALPTACALEMIHTMSLIHDDLPSMDNDDFRRGKPTNHKVYGEDIAILAGDGLLAYAFEYVVTHTPQADPQALLQVIARLGRTVGAAGLVGGQVLDLESEGRTDITPETLTFIHTHKTGALLEASVLTGAILAGATGEQQQRLARYAQNIGLAFQVVDDILDITATQEELGKTAGKDVKAQKATYPSLLGLEASRAQAQSLIDQAIVALEPFGPSAEPLQAIAEYIVARKY
stoichiometry N [4]: 2
